From paper PMC8104411, “The structure of MgtE in the absence of magnesium provides new insights into channel gating” (PLoS Biology, 2021)
Substitutions are numbered along the chain they refer to. Numbers in names are those of the source. Where “and” joins values, the source holds several entries; their conditions need not be identical. Equal entries are not always repeated. Each block holds one binder with its values, some of them ahead of it.

Experiments:
[1] = target: T1, full-length MgtE from Thermus thermophilus (Thermus thermophilus HB8 (ATCC 27634 / …, UniProt Q5SMG8)); assay: ITC; Fab705 (25 uM) injected into the cell with full-length MgtE (about 2.5 uM monomer); 25°C; 20 mM HEPES pH 7.0, 150 mM NaCl, 0.05% DDM, 0 mM MgCl2; three repeats listed one by one; details: both partners purified
T1 construct: Mg2+ channel MgtE, Thermus thermophilus, full length; homodimer; In DDM micelles for ITC; source: E. coli C41 (DE3), purified (DDM solubilisation, Ni-NTA, HRV3C cleavage, SEC); not shown: His6, N-terminal, cleaved

[2] = target: T2, full-length Thermus thermophilus MgtE (Thermus thermophilus, UniProt Q5SMG8); assay: ITC; Fab705 (25 uM) injected into full-length MgtE (about 2.5 uM monomer) in the cell; 25°C; 20 mM HEPES pH 7.0, 150 mM NaCl, 0.05% DDM, 0 mM MgCl2; details: both partners purified
T2 construct: MgtE Mg2+ channel, Thermus thermophilus, full-length gene in a pET28a-derived vector with an N-terminal hexahistidine tag and an HRV3C site; the cryo-EM model holds only residues 271 to 448 (TM domain); Homodimer; also called wild-type MgtE; WT MgtE; source: E. coli C41 (DE3), purified (Ni-NTA, SEC) in DDM; for cryo-EM reconstituted in PMAL-C8 amphipol; not shown: His6, N-terminal, cleaved

[3] = target: the molecule itself; assay: cryo-EM structure; full-length MgtE-Fab705 complex in PMAL-C8 amphipol, no Mg2+ or other divalent cations; 3.7 Å, C2 symmetry imposed
[4] = target: the molecule itself; assay: cross-linking; disulfide cross-linking with Cu2+ bis-1,10-phenanthroline, 0.5 mg/ml MgtE mutant in 20 mM HEPES pH 7.0, 150 mM NaCl, 0.05% DDM, MgCl2 gradient (0.01 to 30 mM), 4°C, non-reducing SDS-PAGE

Kd [1]: 187 nM and 164 nM | stoichiometry N [1]: 0.89 and 0.9 and 0.83
B1: Fab705 (Fab, V domains shown)
VH: EVKLQESGVELVKPGASVKISCKASGYSFTGYNMNWVKQSHGKSLEWIGNISPYYGTSIYNQNFKGKATLTVDRSSSTAYMQLNSLTSEDSAVYYCARGESFSNYEGYYAMDYWGQGTSVIVSS
VL: DVLMTQTPLSLPVSLGDQASISCRSSQSLVHSDGNTYLHWYLQKPGQSPKLLIYKVSNRFSGVPDRFSGSGSGTDFTLKISRVEAEDLGVYFCSQSTHVPWTFGGGTKLEIK
notes: heavy chain of Fab YN0705; in the deposited MgtE-Fab structure PDB 6LBH; light chain of Fab YN0705; Fab made by papain digestion of the mouse monoclonal IgG YN0705 raised against MgtE proteoliposomes; also called Fab YN0705; Fab antibody fragment Fab705; source: mouse hybridoma culture supernatant; IgG purified by protein G, digested with papain, Fab isolated by gel filtration and protein A …

Kd [2]: 216 ± 52.7 nM
B2: Fab antibody fragment Fab705 (Fab, V domains shown)
VH: B1 VH
VL: B1 VL
notes: heavy chain of the mouse Fab YN0705; light chain of the mouse Fab YN0705; Fab made by papain digestion of the mouse monoclonal IgG YN0705 raised against MgtE proteoliposomes; also called Fab YN0705; YN0705; source: mouse hybridoma culture supernatant; IgG purified by protein G, digested with papain, Fab isolated by gel filtration and protein A chromatography

Second part, the binder before the results:

B3: full-length Thermus thermophilus MgtE (natural protein, UniProt Q5SMG8 1-450, looked up)
chain: MEEKLAVSLQEALQEGDTRALREVLEEIHPQDLLALWDELKGEHRYVVLTLLPKAKAAEVLSHLSPEEQAEYLKTLPPWRLREILEELSLDDLADALQAVRKEDPAYFQRLKDLLDPRTRAEVEALARYEEDEAGGLMTPEYVAVREGMTVEEVLRFLRRAAPDAETIYYIYVVDEKGRLKGVLSLRDLIVADPRTRVAEIMNPKVVYVRTDTDQEEVARLMADYDFTVLPVVDEEGRLVGIVTVDDVLDVLEAEATEDIHKLGAVDVPDLVYSEAGPVALWLARVRWLVILILTGMVTSSILQGFESVLEAVTALAFYVPVLLGTGGNTGNQSATLIIRALATRDLDLRDWRRVFLKEMGVGLLLGLTLSFLLVGKVYWDGHPLLLPVVGVSLVLIVFFANLVGAMLPFLLRRLGVDPALVSNPLVATLSDVTGLLIYLSVARLLLEAV
notes: MgtE Mg2+ channel, Thermus thermophilus, full-length gene in a pET28a-derived vector with an N-terminal hexahistidine tag and an HRV3C site; the cryo-EM model holds only residues 271 to 448 (TM domain); Homodimer; also called wild-type MgtE; WT MgtE; source: E. coli C41 (DE3), purified (Ni-NTA, SEC) in DDM; for cryo-EM reconstituted in PMAL-C8 amphipol; not shown: His6, N-terminal, cleaved
stoichiometry N [3]: 2

B4: MgtE double cysteine mutant T336C/L421C (natural protein, Thermus thermophilus, UniProt Q5SMG8 1-450, looked up)
chain: B3 chain with T336C, L421C
notes: MgtE Mg2+ channel, Thermus thermophilus, with two cysteine substitutions; wild-type MgtE has no endogenous cysteine; source: E. coli C41 (DE3), purified as the wild type, with 20 mM DTT added before its removal by SEC; not shown: His6, N-terminal, cleaved
binding result [4]: binds
